Where a chain is given by its changes, count along the chain named.
B1: 20C8.3B8: murine anti-human IGF-1R monoclonal antibody from hybridoma; VH SEQ ID NO:43, VL SEQ ID NO:103 (antibody, V domains shown)
VH: DVQLQESGPDLVKPSQSLSLTCTVTGYSITSGYSWHWIRQFPGNKLEWMGYIHYSGGTNYNPSLKSRISITRDTSKNQFFLQLNSVTTEDTATYYCARSGYGYRSAYYFDYWGQGTTVTVSS
VL: DIVLTQSPASLAVSLGQRATISCRASKSVSTSAYSYMHWYQQKPGQPPKLLIYLASNLESGVPARFSGSGSGTDFTLNIHPVEEEDAATYYCQHSRELPYTFGGGTKLEIK
modifications: Antibody variable heavy chain sequence; Antibody variable light chain sequence
B2: 20D8.24B11: murine anti-human IGF-1R monoclonal antibody from hybridoma; VH SEQ ID NO:53, VL SEQ ID NO:103 (antibody, V domains shown)
VH: B1 VH with V118L
VL: B1 VL
modifications: Antibody variable heavy chain sequence; Antibody variable light chain sequence
B3: Fab M12-E01: human anti-human IGF-1R Fab from phage display library; VH SEQ ID NO:4, VL SEQ ID NO:68 (antibody, V domains shown)
VH: EVQLLESGGGLVQPGGSLRLSCAASGFTFSPYSMLWVRQAPGKGLEWVSSIGSSGGSTRYADSVKGRFTISRDNSKNTLYLQMNSLRAEDTAMYYCARVRGILHYDILIGRNLYYYYMDVWGKGTTVTVSS
VL: QYELTQPPSVSEAPRQRVTISCSGSSSNIGNNAINWYQQLPGKPPKLLIYYDDLLPSGVSDRFSGSKSGTSGSLAISGLQSEDEADYYCAAWDDNLNGVIFGGGTKLTVL
modifications: Antibody variable heavy chain sequence; Antibody variable light chain sequence
B4: M14-C03: anti-IGF-1R antibody, allosteric blocker of IGF-1 and IGF-2 (antibody, V domains shown)
VH: EVQLLESGGGLVQPGGSLRLSCAASGFTFSKYMMSWVRQAPGKGLEWVSYISPSGGLTWYADSVKGRFTISRDNSKNTLYLQMNSLRAEDTAVYYCARDGARGYGMDVWGQGTTVTVSS
VL: DIQMTQSPATLSLSPGERATLSCRASQSVSSYLAWYQQKPGQAPRLLIYDASNRATGIPARFSGSGSGTDFTLTISSLEPEDFAVYYCQQRSNWPPEVTFGPGTKVDIK
modifications: Antibody variable heavy chain sequence; Antibody variable light chain sequence

How the values were obtained:
IGF-1R = target: T1, IGF-1R (Homo sapiens, UniProt P08069); assay: Ligand blocking assay (RIA): 125I-IGF-1 / 125I-IGF-2 binding to immobilized IGF-1R
T1 construct: human IGF-1R(1-903)-Fc (denoted hIGF-1R-Fc, generated by Biogen Idec)
From the text: Ligand blocking assay (RIA). […] Insulin (Arg-Insulin, Cat #01-207) was purchased from Upstate Cell Signaling Solutions (Lake Placid, N.Y. (now part of Millipore, Concord, Mass. (USA)). ^125I-rhIGF-1 (Cat # IM172), ^125I-rhIGF-2 (Cat# IM238) and ^125I-rhInsulin (Cat# IM166) were purchased from Amersham Biosciences (Piscataway, N.J.). AffiPure goat anti-human IgG, Fcγ fragment specific antibodies (Cat #109-005-098, Jackson ImmunoResearch, West Grove, Pa.) was used for IGF-1R-Fc capture. As detection antibody, goat anti-mouse IgG HRP (Cat #1030-05, Southern Biotech Birmingham, Ala.) was used.
Human insulin receptor α-subunit specific antibodies, Clone 83-14, (Cat #AHR0221, Biosource International, Inc., Camarillo, Calif.) and the 47-9 (Cat #E55502M, Biodesign International, Saco, M E) were used as positive controls blocking of insulin-insulin receptor binding experiments. Recombinant IGF-1R-Fc fusion protein was produced at Biogen Idec (Cambridge, Mass.).
As isotype matched mouse negative control antibodies, 2B8 (murine α-CD20.1gG,) and 2B8 mkm.G2a (murine α-CD20 MAb, IgG2a, Biogen Idec, Lot #NB3304-87, San Diego, Calif.) were used. The negative control for Fabs was R001-1B provided by Christilyn Graff (Biogen Idec, Cambridge, Mass.). PBS used in buffers was from BioWhittaker (Cat. # 17-513F, Walkersville, Md.).
Recombinant human IGF-1R (Histidine tagged version) or IGF-1R-Fc was coated onto IMMULON2 HB (high binding) Removawell strips (Dynex Technologies, Inc., cat. #6302) diluted with carbonate coating buffer pH 9.5 to a concentration of 250 ng/well. After overnight incubation at 4° C., the wells were washed three times with washing buffer (0.05% Tween 20/PBS) then blocked with blocking buffer (3% BSA/PBS) for one hour at room temperature. The blocking buffer was removed and the wells washed three more times. Antibody, Fab, or ligand preparations were diluted to desired concentration with dilution buffer (1% BSA/0.05% Tween 20/PBS) and plated at 50 μl per well in duplicate. After 45 minutes at room temperature, 100,000 cpm of either [125I] rhIGF-1 or [125I] rhIGF-2 in 50 μl dilution buffer was added per well. This was incubated at room temperature for one more hour. The wells were washed again three more times and left liquid free after the last wash. The air-dried wells were counted with the Isodata Gamma Counter.
Alternatively, Fabs were evaluated by a modified capture assay, where the IGF-1R-Fc was captured using anti-human IgG immobilized to a plate. Immobilization was carried out by overnight incubation of goat anti-human IgG, Fcγ fragment specific antibody (200 ng/well) in carbonate coating buffer. The wells were washed, blocked and 250 ng of IGF-1R-Fc was added per well.
The ligand blocking ability of the anti-IGF-1R antibody was determined by a solid phase RIA capture method as described in Example 3. […] After 1 hour of incubation at room temperature, the wells were washed and counted for bound radioactivity by a Gamma Counter. An isotype matched negative antibody control, IDEC-151 (human G4), was used. Percent (%) inhibition was calculated as =[1−(Ave.CPM with Ab)/(Ave.CPM with buffer)]×100%.

MCF-7 = assay: Ki67 inhibition in MCF-7 cells; type: cell-based, human; details: breast cancer cell
NCI-H23 = assay: IGF driven tumor cell growth, CELL TITER-GLO, H-23; type: cell-based, human; details: for Proliferation of Tumor Cells H-23: lung cancer cells
Method: (§1) NCI-H23, Calu-6, Colo-205, Panc-1, BxPC-3 (ATCC) tumor lines were purchased from ATCC. Cell lines were grown in complete growth medium containing RPMI-1640 (ATCC), 10% fetal bovine serum (Irvine Scientific Inc.) and 50 μg/ml of Gentamycin (Gibco, Invitrogen). Trypsin-EDTA solution (Sigma) was used for removal of adherent cells from culture vessels. Phosphate buffered saline, pH 7.2, was from MediaTech Inc The 96-well clear bottom plates for luminescent assay was purchased from Wallac Inc.
(§2) Cells grown to 80% monolayers were, trypsinized, washed, resuspended and plated into 96-well plates in 200 μl of 2% growth medium at 8×10^3 cells/well for NCI-H23 and Colo-205 cells; and 5×10^3 cells/well for Calu-6, Panc-1 and BxPC-3 cells. After 24 hours, the culture medium was replaced with 100 μl of serum free medium (SFM), and 50 μl of serially diluted antibodies at 4× concentration was added. […] All treatments were done in triplicates. Cell growth was measured using the CELL TITER-GLO™ Luminescent Cell Viability Assay (Promega, Madison, Wis.). The 1:1 mixture of reagent and SFM was added at 200 μl/well. Luminescence was detected on Wallac (Boston, Mass.) plate reader.
(§3) The ability of the selected murine antibodies to inhibit IGF/IGF-1R dependent in vitro growth of several human tumor lines (Lung, H-23, Calu-6; Pancreas, BxPc-3, Panc-1, MiaPaCa and Colon Colo205) was measured by a proliferation assay described in Example 13.
A commercially available anti-IGF-1R antibody (IR3) was used as a positive control. The mouse IgG (anti-IDectin, IgG1) and human gamma 4 version of IDEC-152 antibody of irrelevant specificity were used as isotype matched controls for the experiments. […]

Calu-6 = assay: IGF driven tumor cell growth, CELL TITER-GLO, Calu-6; type: cell-based, human; details: lung cancer cells
Method: as §1, §2, §3

Colo-205 = assay: IGF driven tumor cell growth, CELL TITER-GLO, Colo-205; type: cell-based, human; details: colon cancer cell
Method: as §1, §2, §3

| Molecule | IGF Blocking IGF-1 (IGF-1R; murine monoclonal antibodies) | IGF Blocking IGF-2 (IGF-1R; murine monoclonal antibodies) | Proliferation of Tumor Cells MCF-7* (Ki67 Inhibit.) (MCF-7) | inhibition of IGF-1 and IGF-2 driven cell proliferation in H-23 (NCI-H23; NCI-H23 lung tumor cell line) | Proliferation of Tumor Cells H-23 (NCI-H23) | Proliferation of Tumor Cells Calu-6 (Calu-6) | Proliferation of Tumor Cells Colo-205 (Colo-205) | IGF Blocking IGF-2 (IGF-1R; Fabs, 125I-IGF-2) |
| --- | --- | --- | --- | --- | --- | --- | --- | --- |
| B1 | +++ (>40%@0.1 μg/ml) | +++ (>40%@0.1 μg/ml) | +++ (>50%@0.1 μg/ml) | showed inhibition | +++ (>30%@0.1 μg/ml) | +++ (>30%@0.1 μg/ml) | +++ (>30%@0.1 μg/ml) | – |
| B2 | +++ (>40%@0.1 μg/ml) | +++ (>40%@0.1 μg/ml) | ++ (>50%@1 μg/ml) | – | ++++ (>30%@0.01 μg/ml) | +++ (>30%@0.1 μg/ml) | +++ (>30%@0.1 μg/ml) | – |
| B3 | – | – | – | – | – | – | – | ++ (>30%@1ug/ml) |
| B4 | – | – | – | – | – | – | – | + (>30%@10ug/ml) |
